From publication PMC10485164, “Sequence-specific targeting of Caenorhabditis elegans C-Ala to the D-loop of tRNAAla”

Legend:
[1] = test system: Ce-C-Alam (C-Ala of mitochondrial AlaRS) (Caenorhabditis elegans); assay: EMSA; settings: 5 mM Mg2+; EMSA: 20 mM Hepes pH 7.5, 20 mM KCl, 5 mM MgCl2, 2 mM DTT, 10 min on ice, 0.1 uM ligand; 5% native PAGE in 0.5x TBE at 4 C; protein 0.125-32 uM
[2] = test system: CeAlaRSm (mitochondrial AlaRS) (Caenorhabditis elegans); assay: EMSA; settings: 5 mM Mg2+; EMSA: 20 mM Hepes pH 7.5, 20 mM KCl, 5 mM MgCl2, 2 mM DTT, 10 min on ice, 0.1 uM ligand; 5% native PAGE in 0.5x TBE at 4 C; protein 0.125-32 uM
[3] = test system: CeAlaRSm(ΔC) (Caenorhabditis elegans); assay: EMSA; settings: 5 mM Mg2+; EMSA: 20 mM Hepes pH 7.5, 20 mM KCl, 5 mM MgCl2, 2 mM DTT, 10 min on ice, 0.1 uM ligand; 5% native PAGE in 0.5x TBE at 4 C; protein 0.125-32 uM
[4] = molecular target: T1, Ce-C-Alac (C-Ala of cytoplasmic AlaRS) (Caenorhabditis elegans, UniProt O01541 757-968); assay: EMSA; 5 mM Mg2+; EMSA: 20 mM Hepes pH 7.5, 20 mM KCl, 5 mM MgCl2, 2 mM DTT, 10 min on ice, 0.1 uM ligand; 5% native PAGE in 0.5x TBE at 4 C; protein 0.125-32 uM; settings: protein: recombinant; tags: His6 (C-terminal, pET21b); label: 5'-32P; two hairpins
T1 sequence: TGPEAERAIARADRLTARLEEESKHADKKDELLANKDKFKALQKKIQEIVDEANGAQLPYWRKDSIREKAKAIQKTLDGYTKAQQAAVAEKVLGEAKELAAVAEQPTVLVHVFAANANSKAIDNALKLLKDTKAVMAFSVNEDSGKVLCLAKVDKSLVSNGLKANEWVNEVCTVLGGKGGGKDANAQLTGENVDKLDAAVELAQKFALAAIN

[5] = molecular target: T2, Ce-C-Alac globular subdomain (GS) (Caenorhabditis elegans, UniProt O01541 859-968); assay: as above; settings: protein: recombinant, tags: His6 (C-terminal, pET21b), label: 5'-32P
T2 sequence: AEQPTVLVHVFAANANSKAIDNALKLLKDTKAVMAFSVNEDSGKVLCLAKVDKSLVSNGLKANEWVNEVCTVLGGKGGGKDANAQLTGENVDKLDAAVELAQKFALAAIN

[6] = molecular target: T1, Ce-C-Alac (C-Ala of cytoplasmic AlaRS); assay: as above; settings: protein: recombinant, tags: His6 (C-terminal, pET21b), label: 5'-32P
[7] = molecular target: T3, Ce-C-Alac helical subdomain (HS) (Caenorhabditis elegans, UniProt O01541 757-858); assay: as above; settings: protein: recombinant, tags: His6 (C-terminal, pET21b), label: 5'-32P
T3 sequence: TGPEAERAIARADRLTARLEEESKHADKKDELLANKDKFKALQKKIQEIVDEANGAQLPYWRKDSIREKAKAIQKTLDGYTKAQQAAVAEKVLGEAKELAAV

For “GGGGGUAUAGCUCAGUGGUAGAGCGCUCCCUUAGCAUGGGAGAGGGCUGGGGUUCAAUUCCCCAUACCUCCACCA [CetRNAnAla]”, the binding signal (fold lower affinity than CetRNAmAla) [1] was 7.5.

For “GGGAUUUUAGUUUAAUAAAAAUAUAUGUUUUGCAUACAUAAGAUAAUAAUUCUACCA [CetRNAmAla]”, the Kd [2] was 0.2 µM, the Kd [1] was 0.2 µM and the Kd [3] was greater than 32 µM.

Work on “GGGAUUUUAGUUUAGUGGUAAAAUAUAUGUUUUGCAUACAUAAGAUAAUAAUUCUACCA [DLnAla mut (CetRNAmAla with D-loop of CetRNAnAla)]” yielded a Kd [2] of 1 µM, a Kd [1] of 4 µM and a Kd [3] greater than 32 µM.

With GCUCCCUGGUAGAGCGCUCCCUUAGCAUGGGAG (structured_RNA) [biloop AG mutant (A14G15 to CC)] the binding signal [4] was 4 fold lower affinity than WT biloop.

GCUCAGUGGUAGAGCGCUCCCUUAGCAUGGGAG (structured_RNA) [biloop (D-arm-anticodon arm of CetRNAnAla)] gave a Kd ([5]; two hairpins) of 2 ± 0.4 µM, a Kd ([6]; two hairpins) of 2 µM and a Kd ([7]; two hairpins) of 6 ± 0.4 µM.

B1: DLmAla mut (CetRNAnAla with D-loop of CetRNAmAla) (structured_RNA)
RNA: GGGGGUAUAGCUCAAUAAGAGCGCUCCCUUAGCAUGGGAGAGGGCUGGGGUUCAAUUCCCCAUACCUCCACCA
For B1, the Kd ([6]; tRNA) was 6.5 µM.

B2: SctRNAnGly (structured_RNA)
RNA: GCGCAAGUGGUUUAGUGGUAAAAUCCAACGUUGCCAUCGUUGGGCCCCCGGUUCGAUUCCGGGCUUGCGCACCA
Molecule B2 has a Kd ([6]; tRNA cloverleaf) of 0.9 µM.

B3: CetRNAmAla (structured_RNA)
RNA: GGGAUUUUAGUUUAAUAAAAAUAUAUGUUUUGCAUACAUAAGAUAAUAAUUCUACCA
In the case of B3, the Kd ([6]; tRNA) is reported as 4.5 µM.

GGGGGUAUGGGGUUCAAUUCCCCAUACCUCCACCA (structured_RNA) [minihelix (T-arm-acceptor stem of CetRNAnAla)] gave a Kd ([5]; hairpin) of 9 ± 0.2 µM and a Kd ([7]; hairpin) of 11 ± 0.1 µM.

B4: CetRNAnAla (structured_RNA)
RNA: GGGGGUAUAGCUCAGUGGUAGAGCGCUCCCUUAGCAUGGGAGAGGGCUGGGGUUCAAUUCCCCAUACCUCCACCA
Molecule B4 has a Kd ([5]; tRNA cloverleaf) of 0.5 µM, a Kd ([6]; tRNA cloverleaf) of 0.8 µM and a Kd ([7]; tRNA cloverleaf) of 2 µM.

B5: CetRNAnAla A14G15 mutant (to GA) (structured_RNA)
RNA: GGGGGUAUAGCUCGAUGGUAGAGCGCUCCCUUAGCAUGGGAGAGGGCUGGGGUUCAAUUCCCCAUACCUCCACCA
B5 was tested, and the Kd ([6]; tRNA, conformation disrupted) was 10 µM.

B6: CetRNAnAla A14G15C48 mutant (structured_RNA)
RNA: GGGGGUAUAGCUCGAUGGUAGAGCGCUCCCUUAGCAUGGGAGAGGGUUGGGGUUCAAUUCCCCAUACCUCCACCA
For B6, the Kd ([6]; tRNA) was 2 µM.

B7: CetRNAnAla G18G19C56 mutant (structured_RNA)
RNA: GGGGGUAUAGCUCAGUAAUAGAGCGCUCCCUUAGCAUGGGAGAGGGCUGGGGUUUAAUUCCCCAUACCUCCACCA
Molecule B7 has a Kd ([6]; tRNA) of 8 µM.
